Data from patent publication US20110318347A1 (Ablynx, published 2011).

T1: CXCR3 (UniProt P49682 1-368, limits assumed)
T1 construct: whole, on cells
T1 sequence (looked up): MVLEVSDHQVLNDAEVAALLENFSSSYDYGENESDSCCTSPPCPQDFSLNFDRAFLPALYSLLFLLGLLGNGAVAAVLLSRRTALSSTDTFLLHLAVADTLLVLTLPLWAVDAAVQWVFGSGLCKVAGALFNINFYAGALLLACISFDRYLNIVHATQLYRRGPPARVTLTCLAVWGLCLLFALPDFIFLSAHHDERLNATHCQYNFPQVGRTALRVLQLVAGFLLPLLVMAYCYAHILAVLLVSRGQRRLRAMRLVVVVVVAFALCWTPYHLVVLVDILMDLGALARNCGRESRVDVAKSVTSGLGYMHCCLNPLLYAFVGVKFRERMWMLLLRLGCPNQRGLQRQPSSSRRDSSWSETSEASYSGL

B1: Nanobody 03F11 (VHH)
VHH: EVQLVESGGGSVQPGGSLTLSCGTSGRTFNVMGWFRQAPGKEREFVAAVRWSSTGIYYTQYADSVKSRFTISRDNAKNTVYLEMNSLKPEDTAVYYCAADTYNSNPARWDGYDFRGQGTQVTVSS
B2: Nanobody 238D2 (VHH)
VHH: EVQLVESGGGLVQTGGSLRLSCAASGFTFSSYAMSWVRQAPGKGLEWVSGIKSSGDSTRYAGSVKGRFTISRDNAKNMLYLQMYSLKPEDTAVYYCAKSRVSRTGLYTYDNRGQGTQVTVSS
modifications: In some assays the Nanobody was 125I-labelled (Iodo-gen, on tyrosine); the letters do not carry this.
notes: Monovalent llama VHH against human CXCR4, purified; tags not described; also called 238C1

What was measured:
human CD4 on cells = human CD4 on cells (human, UniProt P01730 26-458); assay: cell-based or functional assay
CCR5 = CCR5 (UniProt P51681 1-352, limits assumed); assay: cell-based or functional assay
CXCR3 = target: T1, CXCR3; assay: total binding of [125I]-238D2 to membranes of HEK293T cells expressing CXCR4 or CXCR3

Sequence of CCR5 (P51681 whole entry): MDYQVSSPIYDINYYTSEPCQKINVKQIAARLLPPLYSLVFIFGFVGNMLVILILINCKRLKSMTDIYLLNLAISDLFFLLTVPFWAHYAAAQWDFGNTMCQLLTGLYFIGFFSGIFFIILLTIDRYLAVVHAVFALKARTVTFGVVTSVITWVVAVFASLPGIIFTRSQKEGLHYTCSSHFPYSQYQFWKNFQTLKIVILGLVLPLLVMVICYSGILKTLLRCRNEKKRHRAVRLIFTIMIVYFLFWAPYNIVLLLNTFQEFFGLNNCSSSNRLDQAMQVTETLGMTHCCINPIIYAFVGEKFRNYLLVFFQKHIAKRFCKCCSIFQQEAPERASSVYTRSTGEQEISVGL

Binder | anti-HIV activity, NL4.3 on MT4 cells, MTS method, IC50 (human CD4 on cells) [nM] | anti-HIV activity, NL4.3 on MT4 cells, p24 levels, IC50 (human CD4 on cells) [nM] | IC50, HIV-1 BaL, PBMC donor 1 (CCR5) [µg/mL] | IC50, HIV-1 BaL, PBMC donor 2 (CCR5) [µg/mL] | nM IC50, HIV-1 BAL, PBMC donor 1 (CCR5) [nM] | nM IC50, HIV-1 BAL, PBMC donor 2 (CCR5) [nM] | binding result (CXCR3)
B1 | 85 | 15 |  |  |  |  | 
B2 |  |  | > 1 | > 1 | > 67 | > 67 | no binding (tested: 3 nM radioligand)
